Assay results published in publication PMC9347012, “Regulation of tomato fruit elongation by transcription factor BZR1.7 through promotion of SUN gene expression”.

B1: E-box-mt probe (CAAATG to TCGCGA) (dsDNA)
DNA 1: TGTCCATCAAGACCGAAATCGCGAAGAAAAATCACCTAGTGT
DNA 2: ACACTAGGTGATTTTTCTTCGCGATTTCGGTCTTGATGGACA
B2: E-box-wt probe (SUN promoter, 42 bp) (dsDNA)
DNA 1: TGTCCATCAAGACCGAAACAAATGAGAAAAATCACCTAGTGT
DNA 2: ACACTAGGTGATTTTTCTCATTTGTTTCGGTCTTGATGGACA

Target: BZR1.7 (His-6-MBP-BZR1.7) (Solanum lycopersicum, UniProt A0A3Q7IIT4 1-180)
Experiment: EMSA; EMSA: 20 uL binding reaction buffer (composition not given), 40 min at 4 °C in the dark; 6% native PAGE, 0.5x TBE, 4 °C; pH and salt not given
Settings: protein: recombinant; tags: His6-MBP, N-terminal; label: 5'-FAM (on one strand; partner unlabeled); blunt

Sequence of BZR1.7 (His-6-MBP-BZR1.7) (A0A3Q7IIT4 entry or part of it): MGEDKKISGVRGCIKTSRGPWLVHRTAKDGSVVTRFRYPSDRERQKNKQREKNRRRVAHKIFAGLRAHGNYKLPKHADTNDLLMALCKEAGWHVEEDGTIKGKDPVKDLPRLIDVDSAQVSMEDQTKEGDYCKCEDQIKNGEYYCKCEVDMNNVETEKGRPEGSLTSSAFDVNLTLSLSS

Row | Binder | binding result
1 | B1 | no binding
2 | B2 | binds
